B1: N. inopinata guanidinase (Candidatus Nitrospira inopinata) (protein)
chain: MAKKRTYQGKVPLHDNYGPEAKYAVEAEALLPTTKFEEEIARGLELGLPGADSIKDRRIPTFSRGELPHFAGINTFIKAPYVEDVRKCGQYDVAILGAPFDGGTTYRAGTRFGPQGIRKISALYGTYSFELGVDLRESVSICDVGDIFTIPGNIEKTFDQVSKGVGHVFASGAFPVVLGGDHSLGFATVRGVAQHLNGKKLGILHFDRHVDTQDTDLDERMHTTPWFHATNIPNVPAKNLVQIGIGGWQAPRPGVKAGRERQTTIMTVTDCVEMGIENAAKQALEVAFDGVDAVWLSFDVDCLDAAFVPGTGWPEPGGFLPREVLKFLQIIADTKPLAGMEIVECAPPYDAAEITSLMATRVICDVLACQVRSGHLGNRKKR
notes: full-length, N-terminal His6-MBP tag (pCoofy4) cleaved with HRV-3C; E. coli; homohexamer 240 kDa; Ni/Mn; N-terminus from primer MAKKRTY; residues T105, H182, D207, H209, D211, H222, D299, D301, W313, E344

How the values were obtained:
[1] = biological target: Nitrospira inopinata guanidinase (Nitrospira inopinata); experiment: SEC-MALS; Superdex 200 Increase 10/300 GL, 20 °C, 20 mM HEPES, 150 mM NaCl, pH 7.4; 80 µl injected at 1 mg/ml; hexamer in solution
[2] = substrate: N=C(N)N; experiment: urea production, thiosemicarbazide-diacetylmonoxime colorimetry, Michaelis-Menten fit; format: biochemical, Candidatus Nitrospira inopinata; settings: pH 7.5, 37 °C, 20 mM Tris-HCl, 50 mM NaCl, enzyme expressed with 1 mM NiSO4 and assayed with 1 mM Ni2+

Row | Molecule | stoichiometry N [1] | Km [2] [mM]
1 | Nitrospira inopinata guanidinase (enzyme) | 6 | –
2 | B1 | – | 13.6 ± 0.76

Source: publication PMC11410670, “Growth of complete ammonia oxidizers on guanidine” (Nature, 2024)
